Substitutions are numbered along the chain they refer to.
Tests used:
[1] = molecular target: T1, HBVc18 peptide-MHC complex (HBVc18pMHC), biotinylated recombinant tripartite complex of HLA-A*0201, human … (human; hepatitis B virus); assay: SPR (ProteOn), biotinylated HBVc18pMHC on NLC chip, ankyrin repeat protein injected, PBST
T1 construct: also called HLA-A*0201: HBc18; target peptide-MHC complex
Experimental: (§1) Briefly, biotinylated HBVc18pMHC were diluted in PBST (PBS, pH 7.4 containing 0.005% Tween 20®) and coated on a NLC chip (BioRad) to a level of around 1000 resonance units (RU). […] No target regeneration was performed. The signals (i.e. resonance unit (RU) values) of the interspots were subtracted from the RU traces obtained after injection of ankyrin repeat protein. Based on the SPR traces obtained from the on-rate and off-rate measurements, the on- and off-rates of the corresponding ankyrin repeat proteins towards the pMHC complexes were determined.
Dissociation constants (KD) were calculated from the estimated on- and off-rates using standard procedures known to the person skilled in the art.

[2] = molecular target: T1, HBVc18 peptide-MHC complex …; assay: SPR (ProteOn), biotinylated HBVc18pMHC on the NLC chip, DARPin protein injected, multi-trace fit [continued) F]
Experimental: (§2) The binding affinities of the purified ankyrin repeat proteins on the HBVc18pMHC target were analyzed using a ProteOn Surface Plasmon Resonance (SPR) instrument (BioRad) and the measurement was performed according standard procedures known to the person skilled in the art.
as §1

[3] = molecular target: T1, HBVc18 peptide-MHC complex …; assay: SPR (ProteOn), biotinylated HBVc18pMHC on the NLC chip, DARPin protein injected, multi-trace fit
Experimental: as §2, §1

[4] = molecular target: T1, HBVc18 peptide-MHC complex …; assay: SPR (ProteOn), biotinylated HBVc18pMHC on the NLC chip, DARPin protein injected, multi-trace fit [continued) J]
Experimental: as §2, §1

[5] = molecular target: T1, HBVc18 peptide-MHC complex …; assay: SPR (ProteOn), biotinylated HBVc18pMHC on the NLC chip, DARPin protein injected, multi-trace fit; remark: listed apart in the source
Experimental: as §2, §1

[6] = molecular target: T1, HBVc18 peptide-MHC complex …; assay: SPR (ProteOn), biotinylated HBVc18pMHC on the NLC chip, DARPin protein injected, multi-trace fit [continued) G]
Experimental: as §2, §1

[7] = molecular target: T1, HBVc18 peptide-MHC complex …; assay: SPR (ProteOn), biotinylated HBVc18pMHC on the NLC chip, DARPin protein injected, multi-trace fit; remark: listed apart in the source
Experimental: as §2, §1

[8] = molecular target: T1, HBVc18 peptide-MHC complex …; assay: SPR (ProteOn), biotinylated HBVc18pMHC on the NLC chip, DARPin protein injected, multi-trace fit [continued) H]
Experimental: as §2, §1

[9] = molecular target: T1, HBVc18 peptide-MHC complex …; assay: SPR (ProteOn), biotinylated HBVc18pMHC on the NLC chip, DARPin protein injected, multi-trace fit [continued) I]
Experimental: as §2, §1

[10] = molecular target: T1, HBVc18 peptide-MHC complex …; assay: SPR (ProteOn), biotinylated HBVc18pMHC on the NLC chip, DARPin protein injected, multi-trace fit [continued) D]
Experimental: as §2, §1

[11] = molecular target: T1, HBVc18 peptide-MHC complex …; assay: SPR (ProteOn), biotinylated HBVc18pMHC on the NLC chip, DARPin protein injected, multi-trace fit [continued) E]
Experimental: as §2, §1

B1: TCE DARPin® protein #22 (designed binder, not shown: small tags and cut ends)
chain: GSDLGKKLLSAAQSGQDDEVRILLGAGADVNAKDKWGHTPLHLAAVKGHLEIAEVLLKAGADVNAKDEWGSTPLHLAASQGHLEIVEVLLKAGADVNAKDKKGATPLHLAALVGHLEIVEVLLKAVADVNAQDKSGKTPADLAARAGHQDIAEVLQKAA
Kd [1]: 13.8 nM
koff [2]: 0.0115 s⁻¹
kon [2]: 833000 M⁻¹ s⁻¹

B2: TCE DARPin® protein #17 (designed binder, not shown: small tags and cut ends)
chain: GSDLGQKLLLAAAIGQDDEVRILLAAGADVNAKDESGHTPLHYAAHVGHLEIVEVLLKAGDVNAKDHRGFTPLHVAAQIGHLEIVEVLLKAGADVNAQDNWGITPADLAAWWGHEDIAEVLQKAA
koff [3]: 6.24e-06 s⁻¹
kon [3]: 16900 M⁻¹ s⁻¹
Kd [1]: 0.369 nM

B3: TCE DARPin® protein #26 (designed binder, not shown: small tags and cut ends)
chain: GSDLGKKLLQAARAGQLDEVHELLKAGADVNAKDQHGKTPMHLAAQIGHLEIVEVLLKAGADVNAKDHIGWTPLHLAASVGHLEIVEVLLKAGADVNAKDQEGWTPLHVAAQLGHLEIVEVLLKAGADVNAQDKSGKTPADLAARAGHQDSAEVLQKAA
koff [4]: 0.000812 s⁻¹
kon [4]: 87000 M⁻¹ s⁻¹
Kd [1]: 9.33 nM

B4: TCE DARPin® protein #18 (designed binder, not shown: small tags and cut ends)
chain: GSDLGYKLLTAAIVGQDDEVRILLAAGADVNAKDQSGLTPLHLAAAYGHLEIVEVLLKAGADVNAKDKHGRTPLHLAALEGHLEIVEVLLKAGADVNAQDQFGITPADLAAAVGHEDIAEVLQKAA
Kd [1]: 7.15 nM
koff [5]: 0.00218 s⁻¹
kon [5]: 305000 M⁻¹ s⁻¹

B5: TCE DARPin® protein #23 (designed binder, not shown: small tags and cut ends)
chain: B4 chain with Y6Q
Kd [1]: 7.1 nM
koff [6]: 0.00274 s⁻¹
kon [6]: 387000 M⁻¹ s⁻¹

B6: TCE DARPin® protein #16 (designed binder, not shown: small tags and cut ends)
chain: GSDLGHKLLFAASAGQDDEVRILLAAGADVNAKDESGQTPLHYAAFVGHLEIVEVLLKAGADVNAKDQWGHTPLHVAATFGHLEIVEVLLKAGADVNAQDTWGTTPADLAATFGHEDIAEVLQKAA
koff [7]: 0.000307 s⁻¹
kon [7]: 66100 M⁻¹ s⁻¹
Kd [1]: 4.65 nM

B7: TCE DARPin® protein #24 (designed binder, not shown: small tags and cut ends)
chain: B6 chain with H6W, F10H, S13T, A14T
Kd [1]: 4.72 nM
koff [8]: 0.000288 s⁻¹
kon [8]: 61100 M⁻¹ s⁻¹

B8: TCE DARPin® protein #25 (designed binder, not shown: small tags and cut ends)
chain: B6 chain with H6S, F10Y, S13I, A14S, E120V
Kd [1]: 1.03 nM
koff [9]: 3.17e-05 s⁻¹
kon [9]: 30800 M⁻¹ s⁻¹

B9: TCE DARPin® protein #20 (designed binder, not shown: small tags and cut ends)
chain: B6 chain with H6F, F10E, S13L, A14E
Kd [1]: 0.736 nM
koff [10]: 3.26e-05 s⁻¹
kon [10]: 44300 M⁻¹ s⁻¹

B10: TCE DARPin® protein #21 (designed binder, not shown: small tags and cut ends)
chain: GSDLGIKLLFAANFGQDDEVRILLAAGADVNAKDQSGRTPLHLAALWGHLEIVEVLLKAGADVNAKDVFGLTPLHIAATFGHLEIVEVLLKAGVDVNAQDYTGHTPADLAALIGHEDIAEVLQKAA
Kd [1]: 9.23 nM
koff [11]: 0.00106 s⁻¹
kon [11]: 115000 M⁻¹ s⁻¹

Source: patent publication US20230041822A1 (Molecular Partners, published 2023)
